Results published in patent US20260242478A1 (published 2026).
Where no end group is shown, it is not given here.

What was measured:
[1] = biological target: T1, Anti-CD28 Fab (SEQ ID NOs: 696, 697); test: phage binding ELISA; biotinylated anti-CD28 Fab on neutravidin plate, bound phage detected with anti-M13 HRP;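 further: crude supernatants of clonal phage screened, wells pretreated with blocking buffer with or without CD28 antigen before brief phage incubation, washed, then bound phage detected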
T1 construct: In the phage ELISA the Fab was biotinylated and captured on neutravidin coated plates
T1 sequence (VH, as listed by the source, chain 1 of 2): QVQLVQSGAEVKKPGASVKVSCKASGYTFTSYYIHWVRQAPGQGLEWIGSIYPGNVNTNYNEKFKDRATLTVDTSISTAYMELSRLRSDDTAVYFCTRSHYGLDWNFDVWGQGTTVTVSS
T1 sequence (VL, as listed by the source, chain 2 of 2): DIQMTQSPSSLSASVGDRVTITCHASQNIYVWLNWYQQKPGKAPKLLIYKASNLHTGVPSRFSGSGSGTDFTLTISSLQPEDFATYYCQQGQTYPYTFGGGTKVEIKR
Method: (§1) After panning, phage infected bacteria were plated out and colonies picked into 96 well blocks. Clonal phage was then amplified and separated from bacterial cells via centrifugation.
(§2) Clonal phage were harvested as crude supematants and screened via standard ELISAs. […] Prior to the addition of clonal phage, wells were incubated with blocking buffer and CD28 antigen or blocking buffer alone. Without washing or aspirating, clonal phage supematants were then added to the wells and incubated for a short time. Wells were then washed followed by detection of bound phage using a horse radish conjugated anti-M13 antibody. Clonal phage of interest were then sent for sequence analysis.

[2] = biological target: T1, Anti-CD28 Fab (SEQ ID NOs: 696, 697); test: phage binding ELISA on captured anti-CD28 Fab; competitor: CD28 antigen
Method: as §1, §2

[3] = biological target: T2, Anti-CD28 Fab (SEQ ID NOs: 696, 697); test: phage ELISA; biotinylated anti-CD28 Fab on neutravidin plates, bound phage detected with anti-M13 HRP
T2 construct: Biotinylated and captured on neutravidin coated plates in the phage ELISA
T2 sequence (VH, as listed by the source, chain 1 of 2): as the sequence (VH, as listed by the source, chain 1 of 2) above
T2 sequence (VL, as listed by the source, chain 2 of 2): as the sequence (VL, as listed by the source, chain 2 of 2) above
Method: as §1, §2

[4] = biological target: T2, Anti-CD28 Fab (SEQ ID NOs: 696, 697); test: phage ELISA on anti-CD28 Fab plates; competitor CD28 antigen pre-incubated in the wells
Method: as §1, §2

[5] = biological target: T3, Anti-CD28 Fab (SEQ ID NOs: 696, 697); test: phage ELISA on captured anti-CD28 Fab; competitor CD28 antigen pre-incubated in the wells;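 further: clonal phage supernatants added to wells preloaded with CD28 antigen in blocking buffer, control wells buffer only, bound phage read via HRP-linked anti-M13 antibody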
T3 construct: Biotinylated and captured on neutravidin coated plates in the phage ELISA
T3 sequence (VH, as listed by the source, chain 1 of 2): as the sequence (VH, as listed by the source, chain 1 of 2) above
T3 sequence (VL, as listed by the source, chain 2 of 2): as the sequence (VL, as listed by the source, chain 2 of 2) above
Method: as §1, §2

[6] = biological target: T3, Anti-CD28 Fab (SEQ ID NOs: 696, 697); test: phage ELISA; biotinylated anti-CD28 Fab on neutravidin plate, clonal phage supernatant, anti-M13 HRP
[7] = biological target: T4, Anti-CD28 Fab (SEQ ID NOs: 696, 697); test: phage binding ELISA, Fab on plate pre-incubated with CD28 antigen as competitor
T4 construct: Biotinylated and captured on neutravidin coated plates in the phage ELISA
T4 sequence (VH, as listed by the source, chain 1 of 2): as the sequence (VH, as listed by the source, chain 1 of 2) above
T4 sequence (VL, as listed by the source, chain 2 of 2): as the sequence (VL, as listed by the source, chain 2 of 2) above
Method: as §1, §2

[8] = biological target: T4, Anti-CD28 Fab (SEQ ID NOs: 696, 697); test: phage binding ELISA, biotinylated Fab on neutravidin plate, anti-M13 HRP detection;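 further: crude clonal phage supernatants added to Fab-coated wells pretreated with CD28 antigen or with blocking buffer only, bound phage measured after washing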
Method: as §1, §2

Binder	Phage binding ELISA, Anti-CD28 Fab signal [3]	Phage binding ELISA, Anti-CD28 Fab signal in the presence of CD28 [4]	Anti-CD28 Fab signal in the presence of CD28 [7]	Anti-CD28 Fab (SEQ ID NOs: 696, 697) signal [8]	further results
YCDGHAPQYMQKCL [Phage-566]					Anti-CD28 Fab signal [1]: 2.28; Anti-CD28 Fab signal in the presence of CD28 [2]: 0.11
YCDGHAPEYMAKCL [Phage-549]	2.3	0.09			
YCAGHLPEYMPHCI [Phage-543]	2.31	0.09			
YCAGHLPQYMSKCL (tested as crude clonal phage supernatant) [Phage-524]					Phage binding ELISA, Anti-CD28 Fab signal in the presence of CD28 [5]: 0.11; Phage binding ELISA, Anti-CD28 Fab signal [6]: 2.37
YCEGHAAEYMEKCL (Clonal phage of the Peptide-87 library, tested as crude supernatant; not shown: pIII of the bacteriophage to which the peptide is fused) [Phage-556]			0.11	2.3	
YCEGHLPLYMWKCL [Phage-548]	2.3	0.07			
YCDGHLPIYMSQCL (tested as crude clonal phage supernatant) [Phage-525]					Phage binding ELISA, Anti-CD28 Fab signal in the presence of CD28 [5]: 0.12; Phage binding ELISA, Anti-CD28 Fab signal [6]: 2.36
YCAGHSPEHMWKCL [Phage-550]	2.3	0.06			
YCQGHAPEYMAKCL (Clonal phage of the Peptide-87 library, tested as crude supernatant; not shown: pIII of the bacteriophage to which the peptide is fused) [Phage-562]			0.1	2.28	
YCDGHSPQYIEKCL [Phage-544]	2.31	0.07			
YCDGHTLEYMWKCL [Phage-547]	2.31	0.13			
YCEGHLPIYLEKCM [Phage-567]					Anti-CD28 Fab signal [1]: 2.27; Anti-CD28 Fab signal in the presence of CD28 [2]: 0.1
YCEGHTMEYMWKCL [Phage-542]	2.31	0.07			
YCDGHLPQYMMKCL (cysteine pairing not given here; also: displayed on phage by fusion to pIII, pIII and linker sequence not given here) [Phage-569]					Anti-CD28 Fab signal [1]: 2.27; Anti-CD28 Fab signal in the presence of CD28 [2]: 0.14
YCDGHSSEYMAKCL (Clonal phage of the Peptide-87 library, tested as crude supernatant; not shown: pIII of the bacteriophage to which the peptide is fused) [Phage-565]			0.09	2.28	
YCDGHEPQYMLKCL [Phage-540]	2.32	0.12			
YCSGHLPQYMQKCL (Clonal phage of the Peptide-87 library, tested as crude supernatant; not shown: pIII of the bacteriophage to which the peptide is fused) [Phage-564]			0.08	2.28	
YCEGHSQEYMSKCL (cysteine pairing not given here; also: displayed on phage by fusion to pIII, pIII and linker sequence not given here) [Phage-573]					Anti-CD28 Fab signal [1]: 2.26; Anti-CD28 Fab signal in the presence of CD28 [2]: 0.07
YCEGHSSEYMLKCL (Clonal phage of the Peptide-87 library, tested as crude supernatant; not shown: pIII of the bacteriophage to which the peptide is fused) [Phage-555]			0.07	2.3	
YCEGHLPMYMEKCL (cysteine pairing not given here; also: displayed on phage by fusion to pIII, pIII and linker sequence not given here) [Phage-575]					Anti-CD28 Fab signal [1]: 2.25; Anti-CD28 Fab signal in the presence of CD28 [2]: 0.1

Binder	Phage binding ELISA, Anti-CD28 Fab signal [3]	Phage binding ELISA, Anti-CD28 Fab signal in the presence of CD28 [4]	Anti-CD28 Fab signal in the presence of CD28 [7]	Anti-CD28 Fab (SEQ ID NOs: 696, 697) signal [8]	further results
YCDGHLPMYMMKCL (Clonal phage of the Peptide-87 library, tested as crude supernatant; not shown: pIII of the bacteriophage to which the peptide is fused) [Phage-561]			0.14	2.28	
YCDGHAAEYMAKCL (cysteine pairing not given here; also: displayed on phage by fusion to pIII, pIII and linker sequence not given here) [Phage-572]					Anti-CD28 Fab signal [1]: 2.26; Anti-CD28 Fab signal in the presence of CD28 [2]: 0.13
YCDGHLDEYMAKCL [Phage-546]	2.31	0.08			
YCDGHAPQYMRKCL (Clonal phage of the Peptide-87 library, tested as crude supernatant; not shown: pIII of the bacteriophage to which the peptide is fused) [Phage-553]			0.07	2.3	
YCDGHSTEYLWKCL (cysteine pairing not given here; also: displayed on phage by fusion to pIII, pIII and linker sequence not given here) [Phage-570]					Anti-CD28 Fab signal [1]: 2.26; Anti-CD28 Fab signal in the presence of CD28 [2]: 0.06
YCDGHLPEYLWKCL (cysteine pairing not given here; also: displayed on phage by fusion to pIII, pIII and linker sequence not given here) [Phage-574]					Anti-CD28 Fab signal [1]: 2.26; Anti-CD28 Fab signal in the presence of CD28 [2]: 0.13
YCDGHLPEYQEKCL (tested as crude clonal phage supernatant) [Phage-523]					Phage binding ELISA, Anti-CD28 Fab signal in the presence of CD28 [5]: 0.1; Phage binding ELISA, Anti-CD28 Fab signal [6]: 2.37
YCDGHSQEYMMKCL (Clonal phage of the Peptide-87 library, tested as crude supernatant; not shown: pIII of the bacteriophage to which the peptide is fused) [Phage-563]			0.06	2.28	
YCDGHLPQYMWKCL (Clonal phage of the Peptide-87 library, tested as crude supernatant; not shown: pIII of the bacteriophage to which the peptide is fused) [Phage-559]			0.12	2.29	
YCEGHSEEYISKCL [Phage-551]	2.3	0.08			
YCEGHLGIYMYKCL (cysteine pairing not given here; also: displayed on phage by fusion to pIII, pIII and linker sequence not given here) [Phage-571]					Anti-CD28 Fab signal [1]: 2.26; Anti-CD28 Fab signal in the presence of CD28 [2]: 0.14
YCDGHSPEYILKCL [Phage-545]	2.31	0.09			
YCEGHSAQYMSKCL (Clonal phage of the Peptide-87 library, tested as crude supernatant; not shown: pIII of the bacteriophage to which the peptide is fused) [Phage-557]			0.07	2.29	
YCDGHVPEYMAKCL (Clonal phage of the Peptide-87 library, tested as crude supernatant; not shown: pIII of the bacteriophage to which the peptide is fused) [Phage-560]			0.07	2.29	
YCDGHLPIYMAKCL [Phage-552]	2.3	0.14			
YCDGHAKEYMWKCL (Clonal phage of the Peptide-87 library, tested as crude supernatant; not shown: pIII of the bacteriophage to which the peptide is fused) [Phage-554]			0.07	2.3	
YCEGHSPEYMSKCL [Phage-541]	2.31	0.07			
YCEGHTPEYMQKCL [Phage-568]					Anti-CD28 Fab signal [1]: 2.27; Anti-CD28 Fab signal in the presence of CD28 [2]: 0.07
YCDGHSREYIAKCL (Clonal phage of the Peptide-87 library, tested as crude supernatant; not shown: pIII of the bacteriophage to which the peptide is fused) [Phage-558]			0.08	2.29	
YCDGHSWEYIGKCL (tested as crude clonal phage supernatant) [Phage-522]					Phage binding ELISA, Anti-CD28 Fab signal in the presence of CD28 [5]: 0.07; Phage binding ELISA, Anti-CD28 Fab signal [6]: 2.37
